Here are results for one molecule from patent publication US12529705 (dated 2026).

In this assay the target is T1, full-length protein LRP8 expressed in N2A cells transfected with a cDNA coding for LRP8 (Origene, Cat. No. … (human, UniProt Q14114 33-963)).
T1 construct: Tested as a lysate of transfected N2A cells in SDS-PAGE and Western blot, not on intact cells; also called LRP8-FL; APOER2
T1 sequence: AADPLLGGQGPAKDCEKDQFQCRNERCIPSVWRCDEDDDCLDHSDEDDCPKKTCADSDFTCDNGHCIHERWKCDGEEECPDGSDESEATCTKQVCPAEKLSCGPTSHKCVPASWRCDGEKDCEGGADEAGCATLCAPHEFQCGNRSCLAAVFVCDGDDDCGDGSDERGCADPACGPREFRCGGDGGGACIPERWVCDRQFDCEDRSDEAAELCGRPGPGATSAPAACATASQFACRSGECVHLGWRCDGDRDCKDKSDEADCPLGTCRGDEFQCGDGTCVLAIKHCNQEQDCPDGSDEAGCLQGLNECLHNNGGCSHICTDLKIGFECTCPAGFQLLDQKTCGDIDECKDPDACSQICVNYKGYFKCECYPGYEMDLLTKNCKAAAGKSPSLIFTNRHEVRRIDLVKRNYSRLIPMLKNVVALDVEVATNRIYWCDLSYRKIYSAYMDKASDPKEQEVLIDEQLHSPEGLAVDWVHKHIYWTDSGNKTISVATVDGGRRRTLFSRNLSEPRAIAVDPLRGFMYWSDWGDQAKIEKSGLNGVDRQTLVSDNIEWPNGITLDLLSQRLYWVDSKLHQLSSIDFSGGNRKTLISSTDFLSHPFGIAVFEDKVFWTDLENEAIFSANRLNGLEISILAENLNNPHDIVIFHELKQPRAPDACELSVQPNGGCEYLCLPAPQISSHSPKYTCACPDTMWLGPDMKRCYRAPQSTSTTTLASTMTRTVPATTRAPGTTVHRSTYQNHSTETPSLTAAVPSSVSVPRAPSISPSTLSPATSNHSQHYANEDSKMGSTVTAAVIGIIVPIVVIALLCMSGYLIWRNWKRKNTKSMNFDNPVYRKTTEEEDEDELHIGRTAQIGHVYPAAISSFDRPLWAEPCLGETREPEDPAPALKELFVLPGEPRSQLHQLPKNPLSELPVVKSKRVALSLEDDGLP
Kind of assay: Western blot, lysate of LRP8-transfected N2A cells, antibody at 1 µg/ml. An excerpt:
The two lines of hybridomas described above develop antibodies that recognize both the entire protein LRP8 and its different C-terminal fragments. […] I.D. 5 and 9 with a cysteine at the C-terminus are able to produce antibodies that recognize both the protein LRP8 as such, and the fragments of 18-25 kDa, which are substrates of γ-secretase and different shorter fragments of 8-16 kDa, collectively defined as LICDs-derived intracellular domain LRP8, similar to the AICDs fragments derived from the cleavage of AβPP by γ-secretase or by other proteases such as those previously specified. The polyclonal antibodies (rabbit) GS1 and GS2 were made using SEQ I.D. 5 and SEQ I.D. 9, respectively. […] In lane 8 there is a negative control whereas in lane 9 the hybridization was performed using a commercial antibody vs LRP8 (Sigma Aldrich Cat No. SAB1306331) as a positive control. All the antibodies were used at the final concentration of 1 µg/ml. It is therefore clear that both the polyclonal antibodies and the antibodies of clones of hybridomas according to the present invention are able to identify not only the full-length protein LRP8 and the fragments from 18-25 kDa, but also advantageously the fragments 8-16 kDa, as indicated by the boxes in FIG. 3. […]
In general terms: In western blotting, separated proteins are transferred to a membrane and probed.

B1: monoclonal antibody of hybridoma 25F7F1 (antibody, V domains shown)
VH: EVQLQQSGPVLVKPGASVKMSCKASGYKFTDHFMNWVKKNHGKSLEWIGVINPYNGGTRLNPKFKGKATLTVDKSSSTVYMELNSLTFEDSAVYYCARETIDLAWFAYWGQGTLVTVSA
VL: DVLMTQTPPSLPVTLGDQASISCRSSQSIVYSNGKTYLEWYLQKPGQSPKLLMYKVSNRFSGVPDRFSGSGSGTDFTLKISSVEAEDLGIYYCFQGSHVPLTFGAGTKLELK
notes: Mouse (BALB/c) hybridoma monoclonal; also called antibody produced by 25F7F1 mouse hybridomas
Consider B1, for which the binding result is on record as “binds”.
